For this test, the target named is biotinylated complete Aβ1-42 peptide (Bachem) (UniProt P05067). As to the kind of experiment: ELISA on biotinylated complete Aβ1-42 peptide.
Chain of biotinylated complete Aβ1-42 peptide (Bachem) (P05067 672-713 limits assumed): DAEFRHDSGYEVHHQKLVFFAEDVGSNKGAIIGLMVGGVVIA

Control IgG (antibody) had an O.D of 0.196 O.D.
